± gives the uncertainty stated by the source.
B1: library; numbered along this chain (parent)
chain: MEVVDPQQLGMFTEGELMSVGMDTFIHRIDSTEVIYQPRRKRAKLIGKYLMGDLLGEGSYGKVKEVLDSETLCRRAVKILKKKKLRRIPNGEANVKKEIQLLRRLRHKNVIQLVDVLYNEEKQKMYMVMEYCVCGMQEMLDSVPEKRFPVCQAHGYFCQLIDGLEYLHSQGIVHKDIKPGNLLLTTGGTLKISDLGVAEALHPFAADDTCRTSQGSPAFQPPEIANGLDTFSGFKVDIWSAGVTLYNITTGLYPFEGDNIYKLFENIGKGSYAIPGDCGPPLSDLLKGMLEYEPAKRFSIRQIRQHSWFRKKHPPAEAPVPIPPSPDTKDRWRSMTVVPYLEDLHGADEDEDLFDIEDDIIYTQDFTVPGQVPEEEASHNGQRRGLPKAVCMNGTEAAQLSTKSRAEGRAPNPARKACSASSKIRRLSACKQQ

Variants of: B1
Assay: STK11 functional score (HeLa growth suppression), rescaled enrichment; synonymous median = 1, nonsense median = 0 (normalised score)
Details: with HeLa; variant type: missense
In short: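 Functional scores are post/pre-selection log ratios corrected to wild type, rescaled to synonymous and nonsense medians, merged over codons and replicate transfections, and given bootstrapped error. They come from POPCode libraries of codon-optimised STK11 integrated by Bxb1 at an AAVS1 landing pad in HeLa, three regions each transfected three times, with BFP-negative, mCherry-positive integrants sorted by FACS and tiled gDNA amplicons sequenced on NextSeq.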

In order of falling STK11 functional score:
1. K83S  1.7 ± 0.19
2. P38D  1.7 ± 0.3
3. G171N  1.69 ± 0.14
4. V143N  1.68 ± 0.4
5. E121P  1.66 ± 0.23
6. R301I  1.65 ± 0.25
7. I356E  1.62 ± 0.14
8. L102H  1.61 ± 0.3
9. R301L  1.6 ± 0.16
10. L341D  1.6 ± 0.17
11. R310D  1.6 ± 0.15
12. V390T  1.59 ± 0.23
13. S404M  1.58 ± 0.28
14. G381D  1.57 ± 0.29
15. G346Y  1.57 ± 0.17
16. R383E  1.57 ± 0.27
17. E265T  1.56 ± 0.25
18. E317G  1.56 ± 0.17
19. K62Q  1.56 ± 0.21
20. E396H  1.55 ± 0.14
21. E396G  1.55 ± 0.14
22. L400I  1.55 ± 0.28
23. R425S  1.54 ± 0.39
24. Q305I  1.53 ± 0.14
25. R415G  1.53 ± 0.18
26. R384E  1.53 ± 0.27
27. S142D  1.52 ± 0.39
28. S142V  1.51 ± 0.23
29. I300A  1.51 ± 0.15
30. T395Q  1.5 ± 0.32
31. A429Y  1.49 ± 0.23
32. I35S  1.49 ± 0.2
33. F219W  1.49 ± 0.11
34. T250W  1.48 ± 0.098
35. D350P  1.48 ± 0.16
36. T212D  1.48 ± 0.21
37. P413Y  1.47 ± 0.26
38. L117E  1.45 ± 0.19
39. N226Q  1.45 ± 0.27
40. I360G  1.44 ± 0.23
41. G268R  1.44 ± 0.2
42. Y362H  1.44 ± 0.13
43. E33M  1.44 ± 0.2
44. E374P  1.42 ± 0.26
45. L353V  1.42 ± 0.31
46. R383L  1.42 ± 0.25
47. N380K  1.42 ± 0.48
48. S378C  1.42 ± 0.11
49. P321V  1.41 ± 0.28
50. S232I  1.4 ± 0.18
51. L353Y  1.4 ± 0.4
52. R409K  1.39 ± 0.36
53. D365Y  1.38 ± 0.14
54. Q7R  1.38 ± 0.13
55. Y272A  1.33 ± 0.22
56. L117Q  1.33 ± 0.57
57. P323T  1.32 ± 0.24
58. G268Y  1.32 ± 0.19
59. M51K  1.32 ± 0.35
60. P38F  1.31 ± 0.25
61. M18S  1.31 ± 0.14
62. N226C  1.29 ± 0.27
63. D68S  1.29 ± 0.27
64. Q100H  1.28 ± 0.4
65. Q137V  1.27 ± 0.12
66. D365L  1.27 ± 0.14
67. K312V  1.27 ± 0.11
68. E375V  1.27 ± 0.12
69. G279F  1.27 ± 0.17
70. Q159E  1.25 ± 0.55
71. S299W  1.24 ± 0.14
72. A206P  1.24 ± 0.15
73. A218E  1.23 ± 0.24
74. Y36K  1.23 ± 0.15
75. K82G  1.23 ± 0.17
76. M22C  1.21 ± 0.38
77. M51T  1.21 ± 0.37
78. M139L  1.2 ± 0.11
79. R39D  1.19 ± 0.099
80. L45R  1.18 ± 0.29
81. Y362L  1.17 ± 0.24
82. S283V  1.17 ± 0.29
83. S283P  1.15 ± 0.37
84. T24S  1.15 ± 0.41
85. P323A  1.15 ± 0.28
86. R106P  1.14 ± 0.42
87. E14F  1.13 ± 0.088
88. K191A  1.12 ± 0.22
89. Q399A  1.11 ± 0.58
90. N412H  1.1 ± 0.46
91. E351C  1.06 ± 0.11
92. R147M  1.06 ± 0.58
93. Q214F  1.04 ± 0.3
94. P323V  1.01 ± 0.11
95. T209L  1 ± 0.21
96. D327G  0.999 ± 0.22
97. P144R  0.996 ± 0.22
98. V133L  0.982 ± 0.085
99. F255Q  0.98 ± 0.44
100. Q159W  0.972 ± 0.42
101. E357F  0.965 ± 0.41
102. K108G  0.95 ± 0.13
103. S19F  0.945 ± 0.12
104. K108V  0.939 ± 0.085
105. P222R  0.93 ± 0.23
106. V95E  0.927 ± 0.43
107. E376Q  0.896 ± 0.46
108. I361G  0.895 ± 0.29
109. V114P  0.872 ± 0.53
110. P326H  0.87 ± 0.51
111. N247F  0.863 ± 0.091
112. A200D  0.859 ± 0.28
113. L263F  0.857 ± 0.29
114. A377W  0.843 ± 0.75
115. S232V  0.841 ± 0.24
116. G279R  0.829 ± 0.35
117. E291F  0.825 ± 0.25
118. M127P  0.82 ± 0.4
119. Y246L  0.818 ± 0.17
120. P275L  0.807 ± 0.099
121. Q159N  0.806 ± 0.79
122. C391W  0.764 ± 0.48
123. Y253G  0.758 ± 0.17
124. S19R  0.749 ± 0.093
125. C151I  0.722 ± 0.19
126. L386F  0.706 ± 0.4
127. G257R  0.694 ± 0.29
128. C73F  0.572 ± 0.11
129. A316W  0.538 ± 0.091
130. I29T  0.53 ± 0.082
131. L386N  0.528 ± 0.64
132. E33V  0.509 ± 0.087
133. L160S  0.508 ± 0.1
134. K146W  0.507 ± 0.098
135. R147Q  0.506 ± 0.12
136. N226M  0.459 ± 0.1
137. N412M  0.405 ± 0.69
138. L117P  0.386 ± 0.24
139. F255N  0.322 ± 0.14
140. H313Y  0.272 ± 0.7
141. T13G  0.27 ± 0.17
142. T363F  0.261 ± 0.1
143. N94W  0.162 ± 0.14
144. L167P  0.104 ± 0.11
145. I238F  0.0789 ± 0.1
146. L72H  0.0684 ± 0.095
147. A206W  0.035 ± 0.16
148. Q159H  0.00983 ± 0.14
149. T244R  0.00573 ± 0.1
150. L285S  -0.0113 ± 0.096
151. D194R  -0.0399 ± 0.12
152. L140G  -0.0512 ± 0.082
153. L164P  -0.0524 ± 0.1
154. L286G  -0.0797 ± 0.098
155. N181F  -0.0897 ± 0.042
156. W239P  -0.0966 ± 0.095
157. L140F  -0.0987 ± 0.078
158. F298E  -0.101 ± 0.11
159. R147T  -0.149 ± 0.087
160. G58I  -0.159 ± 0.1
161. N181M  -0.246 ± 0.091
162. I248R  -0.248 ± 0.13
163. I177W  -0.249 ± 0.086
164. D194I  -0.258 ± 0.083
165. W308S  -0.303 ± 0.091
166. I303Y  -0.337 ± 0.56
167. A153P  -0.338 ± 0.074
